{
  "source": "patent US20260242454A1",
  "key": {"[1]": {"biological_target": "recombinant human TGF-β3 (human) (UniProt P10600)", "sequence (P10600 301-412 limits assumed)": "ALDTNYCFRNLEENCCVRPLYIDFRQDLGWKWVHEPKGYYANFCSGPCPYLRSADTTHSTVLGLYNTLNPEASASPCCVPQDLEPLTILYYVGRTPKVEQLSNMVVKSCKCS", "experiment": "ELISA, TGF-β3 coated on plate, anti-human IgG Fc-HRP detection"}, "[2]": {"biological_target": "recombinant human TGF-β1 (human) (UniProt P01137)", "sequence (P01137 279-390 limits assumed)": "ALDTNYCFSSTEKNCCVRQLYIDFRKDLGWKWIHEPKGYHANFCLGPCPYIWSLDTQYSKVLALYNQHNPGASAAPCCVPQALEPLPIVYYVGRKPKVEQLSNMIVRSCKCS", "experiment": "ELISA, TGF-β1 coated on plate, anti-human IgG Fc-HRP detection"}},
  "note": "pEC50: −log10 of the molar value.",
  "data": [
    {"substance": "M7824", "values": [
      {"measurement": "pEC50", "setting": "[1]", "value": 8.48},
      {"measurement": "pEC50", "setting": "[2]", "value": 8.68}
    ]}
  ]
}
